Assay: protease stability score; higher = more stable; yeast display proteolysis, trypsin and chymotrypsin;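 note: log10 excess protease needed over predicted unfolded state with 0 meaning unfolded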

Sequence	protease stability score
DDSFVEKLQELLEDGNFERVADMADPNAQFRYGNRDLHGREELRKDAREFLSRVDHYQVDSFHVDNGQLNVTAQATFDGRDYKFTMTLRAKNGRVKSFKISFTSEQQNRQLDEKRE	-0.004
DDSKAEKFARDYVKNLHRGNQDQLARMVDPNVHFEYGDKQVHGREDYKQFNRRLRERVDHIQLKDFRIQGEKIRIEANFNVNGVNADIVFNFQIENGRVTRANMHFRSEDQEKQFHQ	0.161
DDSKERSNLEKFAKALETGDPKKLQQQLDPDARMQIGDKTYHGRHDMEKWLEEFNRQADHYQIDTFDQHNGTLNIQMRMNINGNTVSMTVNVVAKNGRVKHVTFDPDVWRQLES	0.809
DDSLEKELEDIMRTGNFEELVKNADKDARAQYGNRTYHGREDAKEAAHQFRKHVDSIQIDSIHRHNGHMEVDMQVNINGRNVRATMTIEAHNGRVKQFRVEVTDEEFHKTLHRLLE	0.929
DDSLLDKVKEIFSVMRTGDPDKMKKLADKHATFEVGDKQIHGREELSEIMRRRRDEQKVSVEVKRVKKQGDTANIVFTVTNNHNGTPKVETQTMTVNMSNGKITYVNVQNDK	-0.007
DDSMVRLAHTVIDNWRQGDEKKAMELLDPNARAEIGDKTIHGREQMSDEIRKQRTEQRLDIKVKRLEDRPGHVVIDAENTNSKNGRPRTNRVQIHLTAQGDKLKRLRIQNDS	-0.05
DDSNNEIVKHMLEALHTGDPDQMSRLVDPNVRVNVGNKEVHGREQQREEVEKIKRDMRFEADLDDYHVHGEHLEFKVTYKAQINGKPYHFSADLNLTFHNGKLQSESARMDQHELEKLDG	0.029
DDSQVRSALEQAKTGNFQNLRNQLDPNAHVRVGDKTLNGKEEAVSYMQEFRDQVDRIRVDSVTTQGEKAVADLTVVINGHRVRFELVVNIRNGRAREVELRSTSEEIKKHLEHLDS	0.481
DDSREIEKFMTTVERALRRGDEHKLREMFPEDAHLEVGDKTYRGRENVVEANKEWANKFDHIHIRYDKLRVDNGKFDITITYVLKHNGRQETRRAKVVAHKTNGQVKMKSVFDT	0.482
DDSRRATEFNKQYREVFRTGDPRKFEDYMDPNARAHYGDKELHGREQLRNYWKELTDNADHLDVQIHHLHVSGDDVNVDFQWNIDVNGENVQRKVVIIARLENGQVRAKQIVEK	-0.143
DDSVKRLIKNLLKAWEHGDEHRARELMDEDARVTYGDQQVTGREEVARHHATRQKEIRYSIENMDVKVQGNHVEIHVEQQQTHNGEPKQFRYTMDVEARNGKIKRFEIQERR	0.187
DDSVMTAVKELLTNIQSGDPDKIQRYLDPNARMQVGDKEIHGRENIAKEIHDQNNEMEVDIEVKHVEVTGDTAIVHADVQEFHNGRPDTFHLVVRAKQDNGKMTSVVFEKRK	-0.268
DDTAAEVLKEQLDVLKQGDPDRVNQLVDPNAKRHVGDKNYRGMNSMADEDAQKMRNSRIKYTHWEQERSGDKVRVVVVYIEDHNGEPDTHRREFVFKASNGRFHQLNQDDDQ	-0.232
DDTAIRIFEELQKAVENGDEREVQENLDEDAKIEYGNRTLHGREKAAKDYKRMHDQMEFTYDMKHFTVQGDKARLKVEYKATVNGKPYSDSVDVEVKIKNGKIKYIRFQFDEHKQRERDS	0.894
DDTAMRVYQEIVKALQTGDPDKVRNNFDENVEYHVGDTKVHGRDEALERIKKRMDEIRVEIQLQKVETQGDKVIVRARYVNETNGKPKQSNNNIIFKVKNGKMTHMQEREDS	-0.045
DDTARQVYEDAADALRTGDEDEFRKQVDKDVRLTYGDKFIHGREEAARQLRDRQSTMRDEWDINEVQVRNGTINVDANKRNHENGQPQDVNLRVEVHAHNGKLTELRYTVQQ	-0.177
DDTAVKIATRFWKAVETNDEQTLRDNLDPNVEVRYGDKTYHGMEDILKRLRHDADNMRHKVEIKDYRTHNGQANIDMVVRQEHNGKPERRRFKLHFRISNGRVRTMKLNDDS	0.733
DDTAVRIWEKLLSALRTGNEQEVEKNLDPNATVVIGDKRVSGREEVKRMVRRLLTTMRLNVKSVENRDQPGHADVQYTVQFNHNGRPREDRWVVIVRVKNGKIQTVVMKENP	1.12
DDTDQAEKMMEKLKDAFDTGDEDQVLKLADKDVKVDVGDKSYHGKEEYLDLFRHWLKKVDHLRLEVKHVNQNGDEISVTAKLVLDNNGETTDHTLHLVARSVNGDVVLQSMNNG	1.16
DDTHTAEEWFHHLMNILKTNDPDRFANQFDKDARLHYGDTEVRGRENMIEFLRHMVKRIDHQSYTLLQIRVSNGRVEIKVRASMKYDGRVIDDNVEFEADLRGDKIKARQVNIG	0.564
DDTKTARELVENLNEAFEKGDEDQFVSNLPPDARIEVGDRQVHGREQLKKWFDEMVERFDHMRIEVRHVEHHNGDVRVSARMQWQHNGREQSDSVEVVFVNDNGRLKMHVLRYG	1.5
DDTLKRRISELLRAEKHNDPDKINRLFDPNAHIEYGDHRIHGREELKRQITKRMKELRFRIDRVDLEVKGNHARLRIDMTQNHNGTPRRMILDVKINASNGTIHSVDVKLDG	0.297
DDTMIRRLTEWWRAFEHNNSNQMKELADPNAKFSYGDKTVTGMDDIAKQLVNEAREMRVEIRHMKVEQHGEKVRVDFEYEIRDNGRPHTNRVVLEAHQHNGKIQSVQVKDDR	0.356
DDTNVRKVKEYLKAVEHGDEETLRENVDENATVQVGDHSIHGMDNIAKKIKKDRDELRWEIKELEAEAHNGHVNVRVDARYEVNGNPIEDKFTMHFKFENGRVESVEIRVPEEFQKRVDR	0.165
DDTQAREQAHRFMEAMRTGDPDTLRKLMDKDVRVTVGDHTYHGRESVAHAVITMVESIDHISVKDIKVENGTARVDFVVTVNGRRQSYDAVLEVDNGRIRYVQMHEK	0.857

Sequence	protease stability score
DDTQRKRIEEYWTAVKTGDEDRLTELVDEDARVRIGDKEWSGREEIVRRIHDHVRQMRVSLEFKRITVNNGKVQLHAEVEYEHNGKPDTAKVELSMELTNGKFKSNDMQIHK	0.607
DDTRKAKELADRIVKAIKHGDEEYYERLVDKDVHADVGDRTVRGSETLVNTFQHEVEKADHIDAKVRSVSAHNGKIHISITVVVDVNGQQNSKEYTVIANTSNGRVRVEQINFK	0.454
DDTRVKFALHLIKLEETGDEDKLRELMDPNAKISVGDKTYHGREEIVRELRRENHEMRVRIKQFRSTASGEKVRITMDAEFEHNGKPDRFELEVVFDFTNGRVKHIELHERR	1.22
DDTTRAKEWAEELNRIYRNGDPKELEKQMDKDVRLIIGEKHIHGRSQAMNWMRELMKKADHIELRIHDVKVQGENVTVVVVYRINVNGRDVQRRVIIVAEVHNGHLKIKEMHES	1.88
DDTVKEQAEKFFTAQNTGNPDQIANLVDPNARFTIGDKEYHGRENFKSWMETVRDKMDVDYQITDLKTDENHADVVAEYTSTHNGQPERRRMRVDMRLSNGRMKEVNIEDRS	-0.503
DDTVQRMVDKFLENLKTGNEEDISKMADPNVSLNYGDKRIHGREQLMQWVERQEKEMRVEFQIRHVDVHGNKAHVTADMRIHNNGDPDNARVQFVVNAQGDKVKTITFHKTR	-0.14
DDTVRELVKQLRTALESNDEKKVKRLVDPNAQFQYGDKTLHGMTHAASRRVKEHQEIRLSIKKFHVNVSGDHVRVEFRYEVNVNGRPRKASATFTARFENGKMKEQRLRFDEDEYRKLKK	0.063
DEDAAKDYETIVKQQESGDEDKVRQNVDPNAKWHIGEKKVHGRESLANEVHRVRRQMNERMEVKTVKDQGDKANVEMRVVQQHNGEPKDYTMQVDVHAHNGRLREVKATEQS	-0.388
DEDAARKIRKLVEDWANGDPQSVADQMDENAEVHIGDQTLHGRDHVRKFVEKLSEQIRISVQSVTVRASGNHITAHVQMEVDVNGHPDTITFRIHADVDNGRIKSMEYRMDEQEQRKRTS	0.346
DEDAARRMLEFLRQMEQGNEHELRHLADPNARMRVGDHTLHGMEDIAREQVERNRRLRFSNKVDRIKNDGDKVNLQIRFQIDVNGKPFTDVVSVNVHEHNGKIEFVEFRVPEEFREKVKR	0.1
DEDAARSAEHLQRHNDFDEFARRADENVRLRVGDFRFQGREQVIRFMKRFTDRFDHVQFRRMDFHGNRMQAEFVAEVNGKTVKMKESFQIDNGRVHSVTQEATSEEDQEELKRLID	0.254
DEDADRKFQDMVENEHRGDNDKLKKMADKNVKFTVGDKSIHGMEDYATEVRKRKERSRVRYKDVRSNDHNGRVVVKFDAQRNHNGQPKDFHVTVHFRMENGKLKEMEVRTDQ	0.052
DEDADRVFEEFIRAKTRGDPDRLSQLVDPNVRMHVGDQELRGRDTVRRFLHEVLHHARNDIHIQSMEVDGDHVSVEFKATTEHNGQPRTDRMTASAKIDNGRIKSLQEHSKK	-0.297
DEDAEKHWRTFLRNQKTGDEQKMRDQVDPNARASIGDQEVEGREKIVRELVEEFRHMHVQINWKSLTAHNGKVHAHADAQVDHNGRPQTYKITASAQFSNGKIKEFKMQRRP	-0.013
DEDAEREIDRLVRDNNEEDIERLMPEDAKMQVGDKTVTGRENIATQIKRLNQKADHRRIDKITLQGERVVINFTIVVNGTKFKAKIVLHAHNGKIKVVVLRARDEDLDREMSKVMN	0.028
DEDAERHVTEMIHAYKHNNPEKVQTYMDKHVKIKVGDKTVKGREERAKELRKQKDQMRVDYDVHSMNVKGDKITARLRVDITVNGQPHTFEYHLIVKWTNGKIQELSVEFPEEDQKKQSR	-0.086
DEDAERLINQLLTAERRGNPDQVMQQVDKNATQTVGDKHIHGREDISREVEKRKRESRVDRKVESIDIRGNQARIEVHFEEDRNGKPVTSAQTMDITFHNGVVHERKVQDDS	-0.743
DEDAERRMREQLKVFNRGNPDQMVKYMDKDARIEVGDTVVEGREDWRHEIDKQKKEAKYKIDVKRVDVDGDDLTIDATISVDHNGKPREKKLIVEAKLHNGKLKHARYDNRG	-0.05
DEDAFRVWRRLLSAIRDGDEDKVRNQADENATATIGDKTWHGMTTLAHELVHEARNLRFTQRITHYSVDNGRVNADYRFTKNENGRPQEDRVLVRFVAHNGQLKSVHNTKIS	0.131
DEDAHKRYEHIERVMEHGDESTLEQLMDPNARIQVGDKEVRGMNKWAKEVAEEIRQMEVRVDIKSVDVRGNRVRVEAKYTVNVNGRPKTATKEVVLDFENGRVSYVQVRFDPDRKKSIDQ	0.443
DEDAHRLVEEFWRALKDGDSEQIKELADKDVHVQVGDTKVHGREELASQVQRERDQMSVDLKIDHVELNEDHVDVEAKMVVEHNGKPKTNKAKLDFRFHNGKLQMMRRQTRQ	-0.184
DEDAHRRASTLMTAIENNDPHKVMQMFDEDAKVDVGDKRVSGRERQAEEERERNTQSRVRYKSYKIDAQGNKVRVHADFEVHHNGRPDRKRMKAVFNYDNGKIKQATVKDDK	-0.235
DEDAIRSVEKMLQDRRTGNPHEVQKMFDPNAQVDVGDKTVQGRENIKDHVETDLRQSRFHMEIKHVQAHNGQIDIDAERSYTRNGQPDSNRVEIVIDIKNGKIRSVKVRTDD	-0.488
DEDAIRVANEILKAIKEGDPHQIEEQFDKHARATYGDKTIEGSKNIMNFQKQMMDRASIKIDSVRLKNQGDHANLDYRAKVTHNGTPNDRRFTADVTVRNGKMRVFDVESRP	-0.365
DEDAKKQVETMIRLIERGNEKEIKKQMDPNATYQVGDNRLHGMDQVNKHLKDLKEQMRFVFDVKSITVRGDKVDIDLQLDKNENGRPDKEDARMIVHVHNGSVKSVIVTTRG	0.143

From the NTF2 design screens of Basanta et al. (2020)
